How the values were obtained:
[1] = target: EGFR (on U87MG EGFR WT glioblastoma cells) (UniProt P00533); assay: flow cytometry; conditions: U87 EGFR WT cells, 1 nM-5 µM aptamer; no/low signal on EGFR-negative LN319 cells; 2'-fluoro pyrimidines (2'F-RNA); Flow cytometry: 300,000 cells detached with 0.2 M EDTA, 30 min with Cy5-aptamer; tissue: selection buffer, 2% BSA +/- 100 µg/mL yeast tRNA block, 1 h on ice …
[2] = target: integrin α5β1 (on U87MG α5+ cells) (UniProt P08648+P05556); assay: flow cytometry; conditions: 2'-fluoro pyrimidines (2'F-RNA); Flow cytometry: 300,000 cells detached with 0.2 M EDTA, 30 min with Cy5-aptamer; tissue: selection buffer, 2% BSA +/- 100 µg/mL yeast tRNA block, 1 h on ice …; cited from earlier work
integrin α5β1 (on U87MG α5+ cells), sequence (P08648 42-1049, chain 1 of 2): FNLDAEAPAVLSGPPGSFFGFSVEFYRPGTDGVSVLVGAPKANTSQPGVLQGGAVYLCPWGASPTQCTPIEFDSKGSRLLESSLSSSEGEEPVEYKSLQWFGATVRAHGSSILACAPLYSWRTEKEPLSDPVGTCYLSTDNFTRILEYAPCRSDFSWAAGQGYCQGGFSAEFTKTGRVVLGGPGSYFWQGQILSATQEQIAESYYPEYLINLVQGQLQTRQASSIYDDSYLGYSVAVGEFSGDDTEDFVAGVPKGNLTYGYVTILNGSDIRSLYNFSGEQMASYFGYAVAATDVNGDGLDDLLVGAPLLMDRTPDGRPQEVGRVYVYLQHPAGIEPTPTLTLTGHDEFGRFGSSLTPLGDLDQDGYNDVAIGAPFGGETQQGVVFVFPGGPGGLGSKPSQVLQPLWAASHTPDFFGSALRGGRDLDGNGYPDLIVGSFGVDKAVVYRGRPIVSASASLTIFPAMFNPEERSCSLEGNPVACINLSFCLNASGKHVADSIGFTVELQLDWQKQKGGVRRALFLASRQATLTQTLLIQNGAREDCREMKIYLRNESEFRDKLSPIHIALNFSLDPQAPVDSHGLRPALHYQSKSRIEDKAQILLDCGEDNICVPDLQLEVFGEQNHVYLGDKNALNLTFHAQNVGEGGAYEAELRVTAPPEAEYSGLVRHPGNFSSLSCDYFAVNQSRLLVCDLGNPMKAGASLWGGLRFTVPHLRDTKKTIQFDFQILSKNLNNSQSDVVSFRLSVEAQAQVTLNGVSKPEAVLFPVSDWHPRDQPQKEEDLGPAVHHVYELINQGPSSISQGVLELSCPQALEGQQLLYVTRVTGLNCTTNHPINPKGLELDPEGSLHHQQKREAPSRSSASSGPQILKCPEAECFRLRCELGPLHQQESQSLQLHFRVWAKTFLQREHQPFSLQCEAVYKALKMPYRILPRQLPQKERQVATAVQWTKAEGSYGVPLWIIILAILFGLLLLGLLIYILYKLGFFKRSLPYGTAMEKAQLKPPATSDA
integrin α5β1 (on U87MG α5+ cells), sequence (P05556 21-798, chain 2 of 2): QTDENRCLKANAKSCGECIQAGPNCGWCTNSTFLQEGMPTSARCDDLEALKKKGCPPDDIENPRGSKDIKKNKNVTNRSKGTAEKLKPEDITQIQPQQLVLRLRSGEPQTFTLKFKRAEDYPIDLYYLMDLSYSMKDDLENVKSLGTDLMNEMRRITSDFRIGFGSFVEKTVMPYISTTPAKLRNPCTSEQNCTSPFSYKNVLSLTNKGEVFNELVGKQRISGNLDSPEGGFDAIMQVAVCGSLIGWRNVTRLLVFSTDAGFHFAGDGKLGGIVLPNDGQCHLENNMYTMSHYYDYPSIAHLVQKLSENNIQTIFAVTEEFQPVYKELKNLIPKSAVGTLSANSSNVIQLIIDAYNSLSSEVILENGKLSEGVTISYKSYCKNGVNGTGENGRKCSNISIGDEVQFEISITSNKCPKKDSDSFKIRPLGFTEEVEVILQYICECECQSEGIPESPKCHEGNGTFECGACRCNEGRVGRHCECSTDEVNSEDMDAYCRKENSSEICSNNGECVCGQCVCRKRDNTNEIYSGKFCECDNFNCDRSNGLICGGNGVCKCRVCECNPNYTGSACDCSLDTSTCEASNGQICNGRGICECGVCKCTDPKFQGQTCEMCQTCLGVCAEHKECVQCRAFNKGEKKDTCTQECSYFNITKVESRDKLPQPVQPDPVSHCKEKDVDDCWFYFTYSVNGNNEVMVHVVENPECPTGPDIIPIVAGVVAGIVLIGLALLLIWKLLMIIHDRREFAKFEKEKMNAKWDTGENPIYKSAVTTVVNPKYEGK

**Q.** With “GGACGGAUUUAAUCGCCGUAGAAAAGCAUGUCAAAGCCGGAACCGUCC [E07-Cy5]” as the sequence, how does the Kd [1] read?
**A.** Its Kd is 209 nM.

**Q.** With “GGUUACCAGCCUUCACUGCGGACGGACAGAGAGUGCAACCUGCCGUGCCGCACCACGGUCGGUCACAC [H02-Cy5]” as the sequence, how does the Kd [2] read?
**A.** Its Kd is 278 nM.
